Laboratory results published in publication PMC9279222, “Human myelin proteolipid protein structure and lipid bilayer stacking” (Cellular and Molecular Life Sciences: CMLS, 2022).

B1: human myelin proteolipid protein (natural protein, UniProt P60201-1 1-277, looked up)
chain: MGLLECCARCLVGAPFASLVATGLCFFGVALFCGCGHEALTGTEKLIETYFSKNYQDYEYLINVIHAFQYVIYGTASFFFLYGALLLAEGFYTTGAVRQIFGDYKTTICGKGLSATVTGGQKGRGSRGQHQAHSLERVCHCLGKWLGHPDKFVGITYALTVVWLLVFACSAVPVYIYFNTWTTCQSIAFPSKTSASIGSLCADARMYGVLPWNAFPGKVCGSNLLSICKTAEFQMTFHLFIAAFVGAAATLVSLLTFMIAATYNFAVLKLMGRGTKF
notes: myelin proteolipid protein (PLP), human, 30 kDa; cloned from acc; NM_000533; Studied in a detergent complex (DM, UDM or d-DDM); also called PLP; myelin PLP; source: Sf21 insect cells (baculovirus), solubilized in DM or UDM, purified (IMAC, TEV cleavage, reverse IMAC, SEC); not shown: eGFP, C-terminal, cleaved; His8, C-terminal, cleaved
B2: human DM20 (shorter isoform of myelin proteolipid protein) (natural protein, UniProt P60201-2 1-242, looked up)
chain: MGLLECCARCLVGAPFASLVATGLCFFGVALFCGCGHEALTGTEKLIETYFSKNYQDYEYLINVIHAFQYVIYGTASFFFLYGALLLAEGFYTTGAVRQIFGDYKTTICGKGLSATFVGITYALTVVWLLVFACSAVPVYIYFNTWTTCQSIAFPSKTSASIGSLCADARMYGVLPWNAFPGKVCGSNLLSICKTAEFQMTFHLFIAAFVGAAATLVSLLTFMIAATYNFAVLKLMGRGTKF
notes: DM20, minor isoform of human PLP (26 kDa), lacks 35 residues in the intracellular loop; Studied in a detergent complex (DM or UDM); source: Sf21 insect cells (baculovirus), solubilized in DM or UDM, purified (IMAC, TEV cleavage, reverse IMAC, SEC); not shown: eGFP, C-terminal, cleaved; His8, C-terminal, cleaved

Target: the molecule itself
Assay: SEC-MALS; protein conjugate analysis; 50 µg protein on Superdex 200 Increase 10/300 in 0.2% DM, 0.3 M NaCl, 0.5 mM TCEP, 5% glycerol, 20 mM Tris pH 7.5; protein-detergent complex

Protein	stoichiometry N
B1	2
B2	2
